Values quoted from earlier work in publication PMC5659385.

Molecular target: concanavalin A (Canavalia ensiformis) (UniProt P02866)
Sequence of UniProt P02866 (P02866 30-148, chain 1 of 2): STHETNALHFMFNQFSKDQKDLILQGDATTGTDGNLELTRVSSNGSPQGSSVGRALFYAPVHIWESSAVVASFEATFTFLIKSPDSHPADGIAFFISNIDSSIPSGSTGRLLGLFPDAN
Sequence of UniProt P02866 (P02866 164-281, chain 2 of 2): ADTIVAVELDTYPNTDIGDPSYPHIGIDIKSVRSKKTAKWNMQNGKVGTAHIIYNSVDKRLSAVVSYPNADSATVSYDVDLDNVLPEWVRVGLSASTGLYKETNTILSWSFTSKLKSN

glucose oxidase (from UniProt P13006)
Kd: 1.64 nM
